Test results from US20120213763A1 (COUNCIL OF SCIENTIFIC AND INDUSTRIAL RESEARCH, published 2012).
Changes are numbered by the printed parent chain. In names and notes the source's numbering stands. Like-named read-outs stand apart in the source and are kept apart here.

What was measured:
Assay in all cases: cell-based or functional assay
[1] = biological target: human plasminogen (HPG) (human) (UniProt P00747)
[2] = biological target: T1, human plasminogen (HPG) (human, UniProt P00747 97-810)
[3] = biological target: T1, human plasminogen (HPG); remark: listed apart in the source

T1 sequence (P00747 97-810): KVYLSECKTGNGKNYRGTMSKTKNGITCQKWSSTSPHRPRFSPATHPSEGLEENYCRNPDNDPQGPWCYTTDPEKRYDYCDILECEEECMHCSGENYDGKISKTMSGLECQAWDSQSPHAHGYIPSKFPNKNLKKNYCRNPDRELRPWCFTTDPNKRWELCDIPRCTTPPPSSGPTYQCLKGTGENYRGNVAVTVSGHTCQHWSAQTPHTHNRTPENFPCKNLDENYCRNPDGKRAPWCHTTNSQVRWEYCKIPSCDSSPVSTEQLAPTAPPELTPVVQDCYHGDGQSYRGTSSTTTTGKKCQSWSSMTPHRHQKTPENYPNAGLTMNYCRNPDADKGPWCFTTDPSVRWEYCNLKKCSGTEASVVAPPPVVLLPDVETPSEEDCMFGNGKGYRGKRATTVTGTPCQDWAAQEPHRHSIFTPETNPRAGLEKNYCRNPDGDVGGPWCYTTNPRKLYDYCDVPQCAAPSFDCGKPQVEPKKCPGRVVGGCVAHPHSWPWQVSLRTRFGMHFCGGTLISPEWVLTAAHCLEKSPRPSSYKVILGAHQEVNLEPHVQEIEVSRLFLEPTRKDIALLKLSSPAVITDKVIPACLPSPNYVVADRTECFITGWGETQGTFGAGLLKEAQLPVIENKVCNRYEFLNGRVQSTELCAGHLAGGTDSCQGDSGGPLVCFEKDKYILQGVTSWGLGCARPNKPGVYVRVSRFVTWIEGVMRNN
human plasminogen (HPG) (human), sequence (P00747 97-810): as above

PEGylated SK C-383 Cys (SEQ ID NO 492), Cys at C + 1 position of SK 1-383, G3 (from UniProt P00779 27-409)
% Plasminogen activation [1]: 92%

B1: PEGylated SK N-Cys (SEQ ID NO 489), Cys at N - 1 position in SK (other)
chain: CIAGPEWLLDRPSVNNSQLVVSVAGTVEGTNQDISLKFFEIDLTSRPAHGGKTEQGLSPKSKPFATDSGAMSHKLEKADLLKAIQEQLIANVHSNDDYFEVIDFASDATITDRNGKVYFADKDGSVTLPTQPVQEFLLSGHVRVRPYKEKPIQNQAKSVDVEYTVQFTPLNPDDDFRPGLKDTKLLKTLAIGDTITSQELLAQAQSILNKNHPGYTIYERDSSIVTHDNDIFRTILPMDQEFTYRVKNREQAYRINKKSGLNEEINNTDLISEKYYVLKKGEKPYDPFDRSHLKLFTIKYVDVDTNELLKSEQLLTASERNLDFRDLYDPRDKAKLLYNNLDAFGIMDYTLTGKVEDNHDDTNRIITVYMGKRPEGENASYHLAYDKDRYTEEEREVYSYLRYTGTPIPDNPNDK
modifications: PEG (thiol-reactive methoxy-PEG maleimide) on the Cys at N - 1 position
% Plasminogen activation [2]: 88%

B2: bi-pegylated NC 1-383 (SEQ ID NO 493), Cys at N - 1 and at C + 1 position in SK (1-383, G3) (other)
chain: CIAGPEWLLDRPSVNNSQLVVSVAGTVEGTNQDISLKFFEIDLTSRPAHGGKTEQGLSPKSKPFATDSGAMSHKLEKADLLKAIQEQLIANVHSNDDYFEVIDFASDATITDRNGKVYFADKDGSVTLPTQPVQEFLLSGHVRVRPYKEKPIQNQAKSVDVEYTVQFTPLNPDDDFRPGLKDTKLLKTLAIGDTITSQELLAQAQSILNKNHPGYTIYERDSSIVTHDNDIFRTILPMDQEFTYRVKNREQAYRINKKSGLNEEINNTDLISEKYYVLKKGEKPYDPFDRSHLKLFTIKYVDVDTNELLKSEQLLTASERNLDFRDLYDPRDKAKLLYNNLDAFGIMDYTLTGKVEDNHDDTNRIITVYMGKRPEGENASYHLAGGGC
modifications: PEG on the Cys at N - 1 and on the C-terminal Cys placed after three glycine residues
% Plasminogen Activation* (pre-complexed with equimolar plasmin) [3]: 92% | % Plasminogen activation [3]: < 5% | Lag [3]: 12 min

B3: bi-pegylated NC 1-414 (SEQ ID NO 491), Cys at N - 1 and at C + 1 position in SK (other)
chain: CIAGPEWLLDRPSVNNSQLVVSVAGTVEGTNQDISLKFFEIDLTSRPAHGGKTEQGLSPKSKPFATDSGAMSHKLEKADLLKAIQEQLIANVHSNDDYFEVIDFASDATITDRNGKVYFADKDGSVTLPTQPVQEFLLSGHVRVRPYKEKPIQNQAKSVDVEYTVQFTPLNPDDDFRPGLKDTKLLKTLAIGDTITSQELLAQAQSILNKNHPGYTIYERDSSIVTHDNDIFRTILPMDQEFTYRVKNREQAYRINKKSGLNEEINNTDLISEKYYVLKKGEKPYDPFDRSHLKLFTIKYVDVDTNELLKSEQLLTASERNLDFRDLYDPRDKAKLLYNNLDAFGIMDYTLTGKVEDNHDDTNRIITVYMGKRPEGENASYHLAYDKDRYTEEEREVYSYLRYTGTPIPDNPNDKC
modifications: PEG (methoxy-PEG maleimide, 20 KDa) on the Cys at N - 1 and on the Cys at C + 1
% Plasminogen Activation* (pre-complexed with equimolar plasmin) [3]: 88% | % Plasminogen activation [3]: < 5% | Lag [3]: 14 min

B4: native streptokinase nSK (1-414) ATCC 12449 (SEQ ID NO 1) (other)
chain: IAGPEWLLDRPSVNNSQLVVSVAGTVEGTNQDISLKFFEIDLTSRPAHGGKTEQGLSPKSKPFATDSGAMSHKLEKADLLKAIQEQLIANVHSNDDYFEVIDFASDATITDRNGKVYFADKDGSVTLPTQPVQEFLLSGHVRVRPYKEKPIQNQAKSVDVEYTVQFTPLNPDDDFRPGLKDTKLLKTLAIGDTITSQELLAQAQSILNKNHPGYTIYERDSSIVTHDNDIFRTILPMDQEFTYRVKNREQAYRINKKSGLNEEINNTDLISEKYYVLKKGEKPYDPFDRSHLKLFTIKYVDVDTNELLKSEQLLTASERNLDFRDLYDPRDKAKLLYNNLDAFGIMDYTLTGKVEDNHDDTNRIITVYMGKRPEGENASYHLAYDKDRYTEEEREVYSYLRYTGTPIPDNPNDK
% Plasminogen activation [2]: 100% | % Plasminogen Activation* (pre-complexed with equimolar plasmin) [3]: 100% | % Plasminogen activation [3]: 100% | Lag [3]: 1 min

B5: PEGylated SK S105C (SEQ ID NO 33) (other)
chain: B4 chain with S105C
modifications: PEG (thiol-reactive methoxy-PEG maleimide) on Cys 105
% Plasminogen activation [2]: 76%

B6: PEGylated SK D173C (SEQ ID NO 39) (other)
chain: B4 chain with D173C
modifications: PEG (thiol-reactive methoxy-PEG maleimide) on Cys 173
% Plasminogen activation [2]: 72%

B7: PEGylated SK L179C (SEQ ID NO 41) (other)
chain: B4 chain with L179C
modifications: PEG (thiol-reactive methoxy-PEG maleimide) on Cys 179
% Plasminogen activation [2]: 22%

B8: PEGylated SK Lys 257 Cys (SEQ ID NO 48) (other)
chain: B4 chain with K257C
modifications: PEG (thiol-reactive methoxy-PEG maleimide) on Cys 257
% Plasminogen activation [2]: 92%

B9: PEGylated SK Ser 258 Cys (SEQ ID NO 49) (other)
chain: B4 chain with S258C
modifications: PEG (thiol-reactive methoxy-PEG maleimide) on Cys 258
% Plasminogen activation [2]: 100%

B10: PEGylated SK L260C (SEQ ID NO 50) (other)
chain: B4 chain with L260C
modifications: PEG (thiol-reactive methoxy-PEG maleimide) on Cys 260
% Plasminogen activation [2]: 100%

B11: PEGylated SK K121C (SEQ ID NO 35) (other)
chain: B4 chain with K121C
modifications: PEG (thiol-reactive methoxy-PEG maleimide) on Cys 121
% Plasminogen activation [2]: 95%

B12: PEGylated SK D95C (SEQ ID NO 30) (other)
chain: B4 chain with D95C
modifications: PEG (thiol-reactive methoxy-PEG maleimide) on Cys 95
% Plasminogen activation [2]: 96%

B13: PEGylated SK D102C (SEQ ID NO 32) (other)
chain: B4 chain with D102C
modifications: PEG (thiol-reactive methoxy-PEG maleimide) on Cys 102
% Plasminogen activation [2]: 74%

B14: PEGylated SK D96C (SEQ ID NO 31) (other)
chain: B4 chain with D96C
modifications: PEG (thiol-reactive methoxy-PEG maleimide) on Cys 96
% Plasminogen activation [2]: 98%

B15: PEGylated SK N255C (SEQ ID NO 46) (other)
chain: B4 chain with N255C
modifications: PEG (thiol-reactive methoxy-PEG maleimide) on Cys 255
% Plasminogen activation [2]: 98%

B16: PEGylated SK C-Cys (SEQ ID NO 490), Cys at C + 1 position in SK (other)
chain: IAGPEWLLDRPSVNNSQLVVSVAGTVEGTNQDISLKFFEIDLTSRPAHGGKTEQGLSPKSKPFATDSGAMSHKLEKADLLKAIQEQLIANVHSNDDYFEVIDFASDATITDRNGKVYFADKDGSVTLPTQPVQEFLLSGHVRVRPYKEKPIQNQAKSVDVEYTVQFTPLNPDDDFRPGLKDTKLLKTLAIGDTITSQELLAQAQSILNKNHPGYTIYERDSSIVTHDNDIFRTILPMDQEFTYRVKNREQAYRINKKSGLNEEINNTDLISEKYYVLKKGEKPYDPFDRSHLKLFTIKYVDVDTNELLKSEQLLTASERNLDFRDLYDPRDKAKLLYNNLDAFGIMDYTLTGKVEDNHDDTNRIITVYMGKRPEGENASYHLAYDKDRYTEEEREVYSYLRYTGTPIPDNPNDKC
modifications: PEG (thiol-reactive methoxy-PEG maleimide) on the Cys at C + 1 position
% Plasminogen activation [2]: 95%
